We go through 1 molecule from patent US20190062443A1 (GALAXY BIOTECH, published 2019).

The experiment deals with DR5-KF fusion protein (human, UniProt O14763 54-183; P01834 1-107, limits assumed). Nature of the experiment: sandwich ELISA for simultaneous binding: anti-DR4 mAb coat, DR4-hFc 0.5 µg/ml, test mAb, DR5-KF 0.5 µg/ml, HRP-anti-Flag M2. (In general: ELISA stands for enzyme-linked immunosorbent assay.)
Sequence of DR5-KF fusion protein (O14763 other isoform, or with tags, fused parts or gaps limits assumed): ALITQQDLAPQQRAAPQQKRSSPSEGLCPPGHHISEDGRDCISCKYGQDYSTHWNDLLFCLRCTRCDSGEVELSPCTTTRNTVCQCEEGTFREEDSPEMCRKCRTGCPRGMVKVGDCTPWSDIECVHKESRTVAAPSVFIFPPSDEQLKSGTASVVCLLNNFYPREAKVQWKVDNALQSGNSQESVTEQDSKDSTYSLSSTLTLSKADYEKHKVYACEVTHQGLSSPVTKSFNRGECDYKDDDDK

Description: Each step of each ELISA assay described in this patent application was performed by room temperature incubation with the appropriate reagent for 1 hour, except the initial plate coating step was done overnight at 4° C. followed by blocking with 2% BSA for 1 hr. Between each step, plates were washed 3 times in PBS containing 0.05% Tween 20. Data points were generally in duplicate or triplicate; there was generally little variability between replicate data points.
Bound DR5-KF was detected with HRP-anti-Flag M2 (Sigma) and substrate.

B1: B-4H6/3H3-hFc** (bispecific antibody, human IgG1, kappa)
heavy: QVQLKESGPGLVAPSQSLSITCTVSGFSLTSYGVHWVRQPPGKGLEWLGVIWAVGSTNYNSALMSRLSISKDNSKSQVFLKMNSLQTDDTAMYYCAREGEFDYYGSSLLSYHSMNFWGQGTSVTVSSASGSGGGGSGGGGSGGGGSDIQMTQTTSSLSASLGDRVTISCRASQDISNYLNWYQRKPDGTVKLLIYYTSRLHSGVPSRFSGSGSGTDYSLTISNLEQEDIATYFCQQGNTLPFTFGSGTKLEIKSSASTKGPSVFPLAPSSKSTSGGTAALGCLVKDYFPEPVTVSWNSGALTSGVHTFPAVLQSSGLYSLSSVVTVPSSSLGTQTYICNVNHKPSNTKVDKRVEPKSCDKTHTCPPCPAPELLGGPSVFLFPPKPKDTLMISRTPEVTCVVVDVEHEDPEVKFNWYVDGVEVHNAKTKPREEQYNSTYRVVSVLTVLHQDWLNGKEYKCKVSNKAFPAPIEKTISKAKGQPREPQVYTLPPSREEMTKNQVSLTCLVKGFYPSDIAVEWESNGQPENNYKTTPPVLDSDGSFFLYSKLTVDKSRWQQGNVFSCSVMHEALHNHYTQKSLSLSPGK
light: EVQLQQSGPELVKPGASVKMSCKASGYTFTSYVMHWVKQKPGQGLEWIGYIIPYNDGTKYNEKFKGKATLTSDKSSSTAYMELSRLTSEDSAVYYCARGGINYDYLYYFDYWGQGTTLTVSSASGSGGGGSGGGGSGGGGSDVVMTQIPLSLPVSLGDQASISCRSSQSLVHSNGNTYLHWYLQKPGQSPKLLIYKVSNRFSGVPDRFSGSGSGTDFTLKISRVEAEDLGVYFCSQSTHVPHTFGGGTKLEIKRTVAAPSVFIFPPSDEQLKSGTASVVCLLNNFYPREAKVQWKVDNALQSGNSQESVTEQDSKDSTYSLSSTLTLSKADYEKHKVYACEVTHQGLSSPVTKSFNRGEC
notes: Bs(scFv)4-IgG format; also called bispecific B-4H6/3H3-hFc** mAb
With B1, the binding result is “binds”.
